One protein from PMC6839023, “Structure of the UspA1 protein fragment from Moraxella catarrhalis responsible for C3d binding” (Journal of Structural Biology, 2019) can be followed below.

The data set concerns the molecule itself. Kind of data set: crystal structure; UspA1 299-452 (2.4 mg/ml) mixed 1:3 with C3d (10.7 mg/ml); 1,6-hexanediol, 0.1 M Tris-HCl pH 8.5, 20 mM MgCl2; 2.5 Å; the crystals held only UspA1 299-452.

B1: UspA1^299–452 (ubiquitous surface protein A1 fragment, residues 299–452) (domain or fragment)
chain: not shown
modifications: fluorescently labelled with the Monolith NT His-Tag Labelling Kit RED-tris-NTA (thermophoresis only)
notes: UspA1 of Moraxella catarrhalis strain ATCC 25238 (BC5), GenBank AAD43465, residues 299-452: part of the long neck (299-336) and of the stalk (337-452); Cloned NdeI/HindIII into pET22b(+); No thrombin cleavage is described; Trimer in the crystal; also called UspA1 fragment (amino acids 299–452); UspA^299–452; source: E. coli BL21(DE3), purified (NiNTA, Superdex 200)
What is called stoichiometry N is the number of molecules, sites or subunits per partner or assembly. With B1, the “stoichiometry N” value was 3.
